Columns and labels:
[1] = biological target: full-length human G-CSF receptor (human) (UniProt Q99062); assay: cell-based or functional assay
[2] = biological target: endogenous IL-3 receptors of BaF3 cells (UniProt P26952); assay: cell-based or functional assay
Chain of UniProt P26952 (P26952 17-396): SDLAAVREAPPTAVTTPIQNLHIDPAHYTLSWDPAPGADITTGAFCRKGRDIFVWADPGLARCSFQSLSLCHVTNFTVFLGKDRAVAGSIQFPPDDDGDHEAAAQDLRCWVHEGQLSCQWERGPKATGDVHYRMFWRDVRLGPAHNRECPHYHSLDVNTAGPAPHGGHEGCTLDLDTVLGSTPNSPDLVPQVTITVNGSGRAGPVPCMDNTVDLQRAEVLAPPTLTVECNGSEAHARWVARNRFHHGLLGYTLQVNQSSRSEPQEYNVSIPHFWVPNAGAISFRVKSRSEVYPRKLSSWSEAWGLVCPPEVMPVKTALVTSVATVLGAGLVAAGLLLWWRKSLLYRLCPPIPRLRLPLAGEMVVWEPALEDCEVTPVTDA

Chain of UniProt Q99062 (Q99062 25-836): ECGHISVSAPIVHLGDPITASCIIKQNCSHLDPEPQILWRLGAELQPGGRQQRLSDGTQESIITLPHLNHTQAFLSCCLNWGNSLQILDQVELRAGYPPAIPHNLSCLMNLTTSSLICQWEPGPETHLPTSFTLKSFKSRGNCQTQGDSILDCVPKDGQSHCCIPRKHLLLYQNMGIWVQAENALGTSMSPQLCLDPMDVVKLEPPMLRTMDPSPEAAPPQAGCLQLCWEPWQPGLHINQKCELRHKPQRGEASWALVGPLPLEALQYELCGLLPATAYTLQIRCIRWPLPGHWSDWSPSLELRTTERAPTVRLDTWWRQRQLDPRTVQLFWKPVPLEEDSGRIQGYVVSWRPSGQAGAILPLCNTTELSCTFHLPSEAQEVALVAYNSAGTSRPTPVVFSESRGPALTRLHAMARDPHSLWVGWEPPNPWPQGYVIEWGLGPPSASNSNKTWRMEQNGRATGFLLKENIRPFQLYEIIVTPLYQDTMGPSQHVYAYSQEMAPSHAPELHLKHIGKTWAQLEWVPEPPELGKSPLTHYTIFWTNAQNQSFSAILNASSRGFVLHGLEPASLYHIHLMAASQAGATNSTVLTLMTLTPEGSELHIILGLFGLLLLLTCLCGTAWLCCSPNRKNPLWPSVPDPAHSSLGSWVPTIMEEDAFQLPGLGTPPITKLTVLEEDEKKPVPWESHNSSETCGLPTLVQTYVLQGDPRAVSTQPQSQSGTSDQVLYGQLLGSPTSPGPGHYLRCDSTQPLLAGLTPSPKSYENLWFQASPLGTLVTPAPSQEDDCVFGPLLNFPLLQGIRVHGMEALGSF

For G-CSF (ligand), which luminescence output-fold stimulation over background (assay medium alone); luciferase reporter, HuG-CSFR-luc (clone 40) cells, 0.8 ng/mL and 5.0 ng/mL GCSF, four hours [1] is on record?
The luminescence output-fold stimulation over background (assay medium alone); luciferase reporter, HuG-CSFR-luc (clone 40) cells, 0.8 ng/mL and 5.0 ng/mL GCSF, four hours was 3 fold.

For “recombinant murine interleukin-3 (from UniProt P01586 33-166) (ligand)”, which PLAP reporter activity (4-MU fluorescence 360/460 nm), +IL-3, - filtration; 3X-RS-pGTPLAP in BaF3, 25 ng/ml rMuIL-3 [2] is on record?
Its PLAP reporter activity (4-MU fluorescence 360/460 nm), +IL-3, - filtration; 3X-RS-pGTPLAP in BaF3, 25 ng/ml rMuIL-3 is 85.

What about the PLAP reporter activity, +IL-3, + filtration; 3X-RS-pGTPLAP in BaF3 [2] of the same substance?
Its PLAP reporter activity, +IL-3, + filtration; 3X-RS-pGTPLAP in BaF3 is 82.

And the PLAP reporter activity, +IL-3, + filtration; 6X-RS-pGTPLAP in BaF3 [2]?
Its PLAP reporter activity, +IL-3, + filtration; 6X-RS-pGTPLAP in BaF3 is 177.

What about the PLAP reporter activity, +IL-3, + filtration; 9X-RS-pGTPLAP in BaF3 [2] of the same substance?
The PLAP reporter activity, +IL-3, + filtration; 9X-RS-pGTPLAP in BaF3 was 257.

And the PLAP reporter activity, +IL-3, + filtration; 12X-RS-pGTPLAP in BaF3 [2]?
The PLAP reporter activity, +IL-3, + filtration; 12X-RS-pGTPLAP in BaF3 was 384.

And the PLAP reporter activity, +IL-3, + filtration; Greater than 12X-RS-pGTPLAP in BaF3 [2]?
Its PLAP reporter activity, +IL-3, + filtration; Greater than 12X-RS-pGTPLAP in BaF3 is 389.

What about the PLAP reporter activity, +IL-3, - filtration; 6X-RS-pGTPLAP in BaF3 [2] of the same substance?
Its PLAP reporter activity, +IL-3, - filtration; 6X-RS-pGTPLAP in BaF3 is 175.

What about the PLAP reporter activity, +IL-3, - filtration; 9X-RS-pGTPLAP in BaF3 [2] of the same substance?
The PLAP reporter activity, +IL-3, - filtration; 9X-RS-pGTPLAP in BaF3 was 276.

And the PLAP reporter activity, +IL-3, - filtration; 12X-RS-pGTPLAP in BaF3 [2]?
The PLAP reporter activity, +IL-3, - filtration; 12X-RS-pGTPLAP in BaF3 was 402.

And the PLAP reporter activity, +IL-3, - filtration; Greater than 12X-RS-pGTPLAP in BaF3 [2]?
The PLAP reporter activity, +IL-3, - filtration; Greater than 12X-RS-pGTPLAP in BaF3 was 384.

And the PLAP reporter activity, +IL-3, average - baseline; 3X-RS-pGTPLAP in BaF3 [2]?
Its PLAP reporter activity, +IL-3, average - baseline; 3X-RS-pGTPLAP in BaF3 is 70.

And the PLAP reporter activity, +IL-3, average - baseline; 6X-RS-pGTPLAP in BaF3 [2]?
The PLAP reporter activity, +IL-3, average - baseline; 6X-RS-pGTPLAP in BaF3 was 160.

And the PLAP reporter activity, +IL-3, average - baseline; 9X-RS-pGTPLAP in BaF3 [2]?
The PLAP reporter activity, +IL-3, average - baseline; 9X-RS-pGTPLAP in BaF3 was 250.

What about the PLAP reporter activity, +IL-3, average - baseline; 12X-RS-pGTPLAP in BaF3 [2] of the same substance?
Its PLAP reporter activity, +IL-3, average - baseline; 12X-RS-pGTPLAP in BaF3 is 375.

What about the PLAP reporter activity, +IL-3, average - baseline; Greater than 12X-RS-pGTPLAP in BaF3 [2] of the same substance?
The PLAP reporter activity, +IL-3, average - baseline; Greater than 12X-RS-pGTPLAP in BaF3 was 370.

And the fold stimulation (avg +IL-3 / avg -IL-3); 3X-RS-pGTPLAP in BaF3 [2]?
Its fold stimulation (avg +IL-3 / avg -IL-3); 3X-RS-pGTPLAP in BaF3 is 3.5 fold.

What about the fold stimulation (avg +IL-3 / avg -IL-3); 6X-RS-pGTPLAP in BaF3 [2] of the same substance?
Its fold stimulation (avg +IL-3 / avg -IL-3); 6X-RS-pGTPLAP in BaF3 is 5.4 fold.

And the fold stimulation (avg +IL-3 / avg -IL-3); 9X-RS-pGTPLAP in BaF3 [2]?
The fold stimulation (avg +IL-3 / avg -IL-3); 9X-RS-pGTPLAP in BaF3 was 6.2 fold.

What about the fold stimulation (avg +IL-3 / avg -IL-3); 12X-RS-pGTPLAP in BaF3 [2] of the same substance?
Its fold stimulation (avg +IL-3 / avg -IL-3); 12X-RS-pGTPLAP in BaF3 is 8.4 fold.

And the fold stimulation (avg +IL-3 / avg -IL-3); Greater than 12X-RS-pGTPLAP in BaF3 [2]?
The fold stimulation (avg +IL-3 / avg -IL-3); Greater than 12X-RS-pGTPLAP in BaF3 was 11.2 fold.

From US7892733
